Laboratory results as given in US20150239980A1 (NEOTOPE BOSCIENCES, published 2015).

T1: recombinant hMCAM-His (human, UniProt P43121 24-559)
T1 construct: not shown: His tag
T1 chain: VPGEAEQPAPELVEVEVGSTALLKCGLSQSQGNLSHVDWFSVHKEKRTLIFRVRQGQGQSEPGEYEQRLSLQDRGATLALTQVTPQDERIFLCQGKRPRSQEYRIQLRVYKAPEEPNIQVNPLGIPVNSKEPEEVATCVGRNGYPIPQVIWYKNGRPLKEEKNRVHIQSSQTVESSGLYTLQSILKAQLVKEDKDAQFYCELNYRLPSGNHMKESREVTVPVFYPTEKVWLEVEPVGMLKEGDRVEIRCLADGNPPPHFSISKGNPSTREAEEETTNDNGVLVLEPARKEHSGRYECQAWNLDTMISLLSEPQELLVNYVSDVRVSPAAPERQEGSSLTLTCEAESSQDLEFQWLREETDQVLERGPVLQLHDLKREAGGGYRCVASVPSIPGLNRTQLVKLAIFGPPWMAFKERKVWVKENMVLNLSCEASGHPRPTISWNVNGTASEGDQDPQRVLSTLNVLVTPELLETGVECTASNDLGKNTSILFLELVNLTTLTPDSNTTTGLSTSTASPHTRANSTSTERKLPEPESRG

T2: human MCAM (melanoma cell adhesion molecule) expressed on transfected CHO cells (human, UniProt P43121 24-646)
T2 construct: also called hMCAM; CD146
T2 chain: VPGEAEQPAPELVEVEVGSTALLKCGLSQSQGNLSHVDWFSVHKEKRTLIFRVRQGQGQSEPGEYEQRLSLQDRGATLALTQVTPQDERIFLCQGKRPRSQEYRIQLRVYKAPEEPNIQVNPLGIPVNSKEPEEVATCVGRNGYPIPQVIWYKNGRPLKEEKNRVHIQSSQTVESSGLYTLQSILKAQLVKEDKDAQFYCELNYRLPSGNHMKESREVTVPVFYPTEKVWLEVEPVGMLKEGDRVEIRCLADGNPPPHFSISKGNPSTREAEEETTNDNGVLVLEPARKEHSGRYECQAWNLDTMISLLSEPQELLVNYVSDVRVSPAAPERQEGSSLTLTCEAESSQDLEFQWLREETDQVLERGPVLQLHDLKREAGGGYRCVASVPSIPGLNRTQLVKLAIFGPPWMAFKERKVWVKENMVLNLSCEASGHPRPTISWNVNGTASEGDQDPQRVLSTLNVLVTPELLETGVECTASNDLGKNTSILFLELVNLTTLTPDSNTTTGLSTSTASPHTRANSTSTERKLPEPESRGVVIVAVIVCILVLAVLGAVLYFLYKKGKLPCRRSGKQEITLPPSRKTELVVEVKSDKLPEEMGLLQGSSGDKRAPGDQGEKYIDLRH

T3: human MCAM domain 1 (amino acids 19-129), Fc-tagged (human, UniProt P43121 19-129)
T3 construct: also called MCAM Fc domain 1
T3 sequence: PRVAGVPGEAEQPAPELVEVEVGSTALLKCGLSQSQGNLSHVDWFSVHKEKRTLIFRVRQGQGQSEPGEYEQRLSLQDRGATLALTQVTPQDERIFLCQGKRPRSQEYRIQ

T4: human MCAM domain 2 (amino acids 139-242), Fc-tagged (human, UniProt P43121 139-242)
T4 sequence: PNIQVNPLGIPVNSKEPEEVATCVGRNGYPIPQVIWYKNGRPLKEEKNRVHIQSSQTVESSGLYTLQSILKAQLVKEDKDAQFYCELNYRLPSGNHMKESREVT

T5: Recombinant human Fc-tagged MCAM IgG1-2A (human MCAM domains 1 and 2, amino acids 19-242) (human, UniProt P43121 19-242)
T5 construct: also called human MCAM IgG1-2A; MCAM Fc domains 1 and 2; not shown: human Fc tag
T5 sequence: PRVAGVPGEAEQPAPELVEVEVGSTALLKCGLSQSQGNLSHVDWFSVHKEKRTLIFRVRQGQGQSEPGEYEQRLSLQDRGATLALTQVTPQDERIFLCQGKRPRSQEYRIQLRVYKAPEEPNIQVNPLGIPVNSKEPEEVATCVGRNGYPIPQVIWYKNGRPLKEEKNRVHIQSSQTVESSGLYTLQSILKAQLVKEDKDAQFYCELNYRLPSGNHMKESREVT

T6: human MCAM domain 3 (amino acids 244-321), Fc-tagged (human, UniProt P43121 244-321)
T6 construct: also called domain 3 of the human MCAM protein
T6 sequence: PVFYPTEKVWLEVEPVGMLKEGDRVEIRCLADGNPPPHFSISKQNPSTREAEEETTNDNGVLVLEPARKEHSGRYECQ


Key:
recombinant hMCAM-His [1] = target: T1, recombinant hMCAM-His; assay: ForteBio Octet Red, hMCAM-His analyte; Expt. #1; vs rodent 2107
Experimental: (§1) The affinities were measured using the ForteBio Octet Red. Anti-human Fc sensors were used to capture the humanized antibodies, and several concentrations of hMCAMHis analyte were used to determine the affinity using a 1:1 fitting model.

recombinant hMCAM-His [2] = target: T1, recombinant hMCAM-His; assay: competitive ELISA on hMCAM-His, competitor biotinylated rodent or chimeric 2107; Expt. #1; vs rodent 2107
Experimental: (§2) ELISA plates were coated with recombinant hMCAM-His, and blocked with casein buffer to prevent non-specific binding. Biotinylated rodent or chimeric antibody was added at a subsaturating concentration, in the presence or absence of 3× increasing concentrations of unlabeled competitor (humanized antibody, rodent, or chimeric). After washing to remove unbound antibody, streptavidin HRP was added to allow detection of the biotinylated antibody. The ELISA was developed with TMB substrate and the OD450 was measured. The IC50 of the unlabeled competitor was determined using the GraphPad Prism5 software.

recombinant hMCAM-His [3] = target: T1, recombinant hMCAM-His; assay: summary of ForteBio and competitive ELISA on hMCAM-His; vs rodent 1749
Experimental: as §2, §1

recombinant hMCAM-His [4] = target: T1, recombinant hMCAM-His; assay: ForteBio Octet Red, hMCAM-His analyte; Forte column 1; vs rodent 1749
Experimental: as §1

[5] = target: T2, human MCAM (melanoma cell adhesion …); assay: laminin/FACS on hMCAM CHO cells, competitor laminin 411; Expt#1; vs rodent 1749
Experimental: (§3) Following incubation for 30-45 minutes, the cells were washed and anti-laminin conjugated to AF650 (NovusBio) was added to detect the bound laminin. The cells were run on a flow cytometer to measure the laminin binding signal.

[6] = target: T2, human MCAM (melanoma cell adhesion …); assay: laminin/FACS on hMCAM CHO cells, competitor laminin 411; Expt#2; vs rodent 1749
Experimental: as §3

[7] = target: T2, human MCAM (melanoma cell adhesion …); assay: summary of laminin blocking assay on hMCAM CHO cells, competitor laminin 411; vs rodent 1749
Experimental: as §3

recombinant hMCAM-His [8] = target: T1, recombinant hMCAM-His; assay: competitive ELISA on hMCAM-His, competitor biotinylated rodent or chimeric 1749; vs rodent 1749
[9] = target: T3, human MCAM domain 1 (amino acids …); assay: ForteBio domain mapping as in Example 8
[10] = target: T4, human MCAM domain 2 (amino acids …); assay: ForteBio domain mapping as in Example 8
[11] = target: T5, Recombinant human Fc-tagged MCAM …; assay: ForteBio domain mapping as in Example 8
[12] = target: T6, human MCAM domain 3 (amino acids …); assay: ForteBio domain mapping as in Example 8
[13] = target: T2, human MCAM (melanoma cell adhesion …); assay: flow cytometry, human MCAM CHO cells preincubated with antibody, competitor recombinant human laminin 411 at 20 ug/ml
Experimental: The 87 independent mouse fusion clones and 26 independent rat fusion clones described in Example 10 above as being capable of (i) binding to human MCAM, and (ii) blocking the interaction between human MCAM and the α-4 chain of laminin were further characterized as follows. First, IC50 quantitation for the ability of the monoclonal antibody to block the binding of human MCAM to the α-4 chain of laminin was determined as follows. CHO cells expressing human MCAM were incubated with an anti-human MCAM antibody (at various concentrations) for 30 minutes at 4 degrees Celsius. […] Unbound laminin was then washed away, and the laminin bound to the surface of the cells was detected with fluorescently labeled anti-laminin antibodies. After washing, the amount of laminin bound to the surface was detected by flow cytometry, and IC50s were calculated based on the mean fluorescent intensity.
These six anti-MCAM monoclonal antibody clones are herein referred to as (i) the mouse anti-human MCAM monoclonal clones 1174.1.3, 1414.1.2, 1415.1.1, and 1749.1.3, and (ii) the rat anti-human MCAM monoclonal antibody clones 2120.4.19 and 2107.4.10. […] As such, each of these specific monoclonal antibodies was very capable of binding to human MCAM and inhibiting the interaction of cell-expressed human MCAM with its α-4 laminin binding ligand.

recombinant hMCAM-His [14] = target: T1, recombinant hMCAM-His; assay: competitive ELISA on hMCAM-His, competitor biotinylated rodent or chimeric 1749; Expt. #2; vs rodent 1749
Experimental: as §2

| Binder | fold reduction in affinity compared to the rodent (recombinant hMCAM-His [3]) | fold over rodent (Forte affinity) (recombinant hMCAM-His [4]) | fold over rodent (blocking, laminin/FACS) [5] | fold over rodent (blocking, laminin/FACS) [6] | fold reduction in potency compared to the rodent [7] | fold over rodent (competitive ELISA) (recombinant hMCAM-His [8]) | binding result [9] | binding result [10] | binding result [11] | binding result [12] | IC50 [13] | further results |
| --- | --- | --- | --- | --- | --- | --- | --- | --- | --- | --- | --- | --- |
| h2107_VH4 + h2107_VL2 (antibody, human IgG1, V domains shown) VH: QVTLKESGPVLVKPTETLTLTCTVSGFSLTSSGVSWVRQPPGKALEWIAAISSGGSTYYNSAFKSRLTISPDTSKSQVVLTMTNMDPVDTATYYCARHRPFYFDYWGQGTLVTVSS VL: DIQMTQSPSSLSASVGDRVTITCKGSQNIYKSLAWFQLKPGKVPKLLIYDANSLQTGIPSRFSGSGSGTDFTLTISSLQPEDVATYYCQQYYSGYTFGGGTKVEIK | – | – | – | – | – | – | – | – | – | – | – | fold over rodent (Forte affinity) (recombinant hMCAM-His [1]): 5.59 fold; fold over rodent (competitive ELISA) (recombinant hMCAM-His [2]): 11.7 fold |
| h1749VH1 + h1749VL2 (antibody, human IgG1, V domains shown) VH: EVQLVESGGGLVQPGGSLRLSCAASGFTFSSYIMSWVRQAPGKGLEWVATISSGGSSTYYPDSVKGRFTISRDNAKNSLYLQMNSLRAEDTAVYYCTRDDDYDVKVFAYWGQGTMVTVSS VL: DIVMTQSPDSLAVSLGERATINCKSSRSLLNSRIRKNYLAWYQQKPGQPPKLLIYWASTRESGVPDRFTGSGSGTDFTLTISSLQAEDVAVYYCKQSYNLLTFGQGTKVEIK | < 2 fold | 2.5 fold | 1.1 fold | 1.2 fold | < 2 fold | 1 fold | – | – | – | – | – | – |
| h1749VH2 + h1749VL1 (antibody, human IgG1, V domains shown, also called h1749VH2VL1) VH: EVQLVESGGGLVQPGGSLRLSCAASGFTFSSYIMSWVRQAPGKRLEWVATISSGGSSTYYPDSVKGRFTISRDNAKNSLYLQMNSLRAEDTAVYYCTRDDDYDVKVFAYWGQGTMVTVSS VL: DIVMTQSPDSLAVSLGERATINCKSSRSLLNSRIRKNYLAWYQQKPGQPPKLLIYWASTRESGVPDRFSGSGSGTDFTLTISSLQAEDVAVYYCKQSYNLLTFGQGTKVEIK | < 2 fold | 1.2 fold | 1.5 fold | 1.8 fold | < 2 fold | 1 fold | – | – | – | – | – | – |
| mouse anti-human MCAM monoclonal antibody clone 1414.1.2 (antibody, V domains shown, mouse hybridoma antibody) VH: EIQLQQTGPELVKPGASVKISCKASGYSFTDYIMLWVKQSHGKSLEWIGNINPYSGSSGYNLKFKGKATLTVDKSSSTAYMQLNSLTSEDSAVYYCARGKDFAMDYWGQGTSVTVSS VL: DIVMSQSPSSLAVSAGEKVTMSCKSSQSLLNSSTRKNFLAWYQQKPGQSPKLLIYWASTRESGVPDRFTGSGSGTDFTLTISSVQAEDLAVYYCKQSYNRYTFGGGTKLEIK | – | – | – | – | – | – | no binding | no binding | no binding | binds | 0.431 µg/mL | – |
| chimeric 1749 TM (antibody, V domains shown) VH: DVKLVESGGDLVKPGGSLKLSCAASGFTFSSYIMSWVRQTPEKRLEWVATISSGGSSTYYPDSVKGRFTISRDNAKNTLYLQMSSLKSEDTAMYYCTRDDDYDVKVFAYWGQGTLVTVSA VL: DIVMSQSPSSLAVSAGEKVTMNCKSSRSLLNSRIRKNYLAWYQQKPGQSPKLLIYWASTRESGVPDRFTGSGSGTDFTLTISSVQAEDLAVYYCKQSYNLLTFGAGTKLELK | – | – | – | – | – | – | – | – | – | – | – | fold over rodent (competitive ELISA) (recombinant hMCAM-His [14]): 1.07 fold |
| mouse anti-human MCAM monoclonal antibody clone 1174.1.3 (antibody, V domains shown, mouse hybridoma antibody) VH: QIQLVQSGPELKKPGETVKISCKASGYTFTNYGMNWVKQAPGKGLKWMGWINTYTGEPTYADDFKGRFALSLETSASTAYLQINNLKNEDMATYFCARYRYNKYERAMDYWGQGTSVTVSS VL: DIVLTQSPASLAVSLGQRATISCRASKSVSTSGYSYMYWYQQKPGQPPKLLIYLASNLESGVPARFSGSGSGTDFTLNIHPVEEEDAATYYCQHSRELPFTFGSGTKLEIK | – | – | – | – | – | – | no binding | no binding | no binding | binds | 0.469 µg/mL | – |
